Where a chain is given by its changes, count along the chain named. In names and notes the source's numbering stands.
B1: Myr-I3-01-myc-p6 (designed binder)
chain: MGARASGSKSGSGSDSGSKMEELFKKHKIVAVLRANSVEEAKKKALAVFLGGVHLIEITFTVPDADTVIKELSFLKEMGAIIGAGTVTSVEQCRKAVESGAEFIVSPHLDEEISQFCKEKGVFYMPGVMTPTELVKAMKLGHTILKLFPGEVVGPQFVKAMKGPFPNVKFVPTGGVNLDNVCEWFKAGVLAVGVGSALVKGTPVEVAEKAKAFVEKIRGCTEQKLISEEDLQSRPEPTAPPEESFRSGVETTTPPQKQEPIDKELYPLTSLRSLFGNDPSSQ
modifications: N-terminal myristoylation motif (6 N-terminal amino acids of HIV Gag); not myristoylated when produced in E. coli
notes: Forms icosahedral assemblies like I3-01; also called Myr-I3-01-p6
B2: EPN-01 (designed binder)
chain: B1 chain with M20I
modifications: N-terminal myristoylation motif (6 N-terminal amino acids of HIV Gag)
notes: Every subunit bears the M domain; also called Myr1-12GS-I3-01(M3I)-myc-Late1

Experiments:
[1] = molecular target: the molecule itself; assay: size exclusion chromatography and negative stain EM, self-assembly
[2] = molecular target: the molecule itself; assay: electron cryo-tomography of released vesicles, self-assembly

| Protein | binding result [1] | binding result [2] |
| --- | --- | --- |
| B1 | binds | – |
| B2 | – | binds |

— patent publication US20200224186A1 (University of Washington, published 2020)
